US20180215825A1 (BEIGENE, published 2018)
Where two headings read alike, the source gives them in different places.

Legend:
[1] = target: T1, human PD-L1, full length, expressed on cells (human, UniProt Q9NZQ7 19-290); experiment: cell-based or functional assay
[2] = target: T1, human PD-L1, full length, expressed on …; experiment: FACS competition with biotin-CD80/Fc on HEK293/PD-L1 cells
[3] = target: T1, human PD-L1, full length, expressed on …; experiment: FACS competition with biotin-PD-1/Fc on HEK293/PD-L1 cells
human PD-L1-ECD/His [4] = target: T2, human PD-L1-ECD/His (human, UniProt Q9NZQ7 19-238); experiment: SPR (BIAcore T-200), human PD-L1/His on CM5 chip, Fab injected
T2 construct: Expressed in 293-F cells; also called PD-L1/His; human PD-L1/His
T2 sequence (Q9NZQ7 19-238): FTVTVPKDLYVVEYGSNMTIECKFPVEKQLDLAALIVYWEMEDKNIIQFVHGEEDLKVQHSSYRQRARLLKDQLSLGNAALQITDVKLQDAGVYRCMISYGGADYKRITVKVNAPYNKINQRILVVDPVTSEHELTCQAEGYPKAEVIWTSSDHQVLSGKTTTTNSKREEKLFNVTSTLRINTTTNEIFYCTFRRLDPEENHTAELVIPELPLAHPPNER
Description: (§1) For affinity determinations of anti-PD-L1 Fabs, SPR assays were performed using BIAcore™ T-200 (GE Life Sciences). Briefly, human PD-L1/His was coupled to an activated CM5 biosensor chip (Cat. No. BR100530, GE Life Sciences) to achieve approximately 100-200 response units (RU), followed by blocking un-reacted groups with 1M ethanolamine. A serial dilutions of 0.12 nM to 90 nM Fab samples were injected, mixed into the SPR running buffer (10 mM HEPES, 150 mM NaCl, 0.05% Tween20, pH7.4) at 30 μL/minute, and binding responses on human PD-L1/His were calculated by substracting of RU from a blank flow-cell. Association rates (kₒₙ) and dissociation rates (koff) were calculated using the one-to-one Langmuir binding model (BIA Evaluation Software, GE Life Sciences). The equilibrium dissociation constant (Kd) was calculated as the ratio koff/kₒₙ.
(§2) For affinity determinations of anti-PD-L1 Fabs, SPR assays were conducted using BIAcore™ T-200 instrument (GE Life Sciences, Shanghai, China) as described earlier. Association rates (kₒₙ) and dissociation rates (koff) were calculated using the one-to-one Langmuir binding model (BIA Evaluation Software, GE Life Sciences). The equilibrium dissociation constant (Kd) was calculated as the ratio koff/kₒₙ.

[5] = target: T1, human PD-L1, full length, expressed on …; experiment: cell-based or functional assay; remark: listed apart in the source
[6] = target: T1, human PD-L1, full length, expressed on …; experiment: FACS competition with biotin-PD-1/Fc on HEK293/PD-L1 cells; remark: listed apart in the source
Description: Using this method, we evaluated functional strength of anti-PD-L1 mAbs.

[7] = target: T1, human PD-L1, full length, expressed on …; experiment: FACS competition with biotin-CD80/Fc on HEK293/PD-L1 cells; remark: listed apart in the source
human PD-L1-ECD/His [8] = target: T2, human PD-L1-ECD/His; experiment: SPR (BIAcore T-200), human PD-L1/His on CM5 chip, Fab injected; remark: listed apart in the source
Description: as §1

[9] = target: T1, human PD-L1, full length, expressed on …; experiment: cell-based or functional assay; remark: listed apart in the source
human PD-L1-ECD/His [10] = target: T2, human PD-L1-ECD/His; experiment: SPR (BIAcore T-200), human PD-L1, Fab injected
Description: as §1, §2

[11] = target: T3, cynomolgus monkey PD-L1/His (cynomolgus monkey (Macaca fascicularis), UniProt G7PSE7 19-238); experiment: SPR (BIAcore T-200), monkey PD-L1, Fab injected
T3 construct: extracellular domain; Said to be expressed and purified in a similar way to the human PD-L1/His (PD-L1-ECD/His); not shown: His tag
T3 sequence (G7PSE7 entry or part of it): as the sequence (Q9NZQ7 19-238) above, with A33T, A34S, S62N, R68Q, Q82R, F173L, T185A, T192I, H215L counted along it

[12] = target: T1, human PD-L1, full length, expressed on …; experiment: FACS competition with biotin-CD80/Fc on HEK293/PD-L1 cells; remark: listed apart in the source
[13] = target: T1, human PD-L1, full length, expressed on …; experiment: FACS competition with biotin-PD-1/Fc on HEK293/PD-L1 cells; remark: listed apart in the source

T1 sequence (Q9NZQ7 19-290 limits assumed): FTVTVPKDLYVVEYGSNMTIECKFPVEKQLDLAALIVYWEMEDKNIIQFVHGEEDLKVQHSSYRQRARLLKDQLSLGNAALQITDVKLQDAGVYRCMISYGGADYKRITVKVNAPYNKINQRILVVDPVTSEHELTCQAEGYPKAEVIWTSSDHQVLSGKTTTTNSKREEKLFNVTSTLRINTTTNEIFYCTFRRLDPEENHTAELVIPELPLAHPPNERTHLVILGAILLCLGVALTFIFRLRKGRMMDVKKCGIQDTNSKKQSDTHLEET

Binder | IL-2 release in HuT78/P3Z: IC50 [1] [µg/mL] | IL-2 release in HuT78/P3Z: Max inhibition [1] [%] | IL-2 release in HuT78/PD-1: EC50 [1] [µg/mL] | IL-2 release in HuT78/PD-1: Top line [1] [pg/mL] | IC50 [2] [µg/mL] | Max inhibition [2] [%] | IC50 [3] [µg/mL] | Max inhibition [3] [%] | Kd (human PD-L1-ECD/His [4]) [pM] | koff (human PD-L1-ECD/His [4]) [s⁻¹] | kon (human PD-L1-ECD/His [4]) [M⁻¹ s⁻¹] | also measured
hu333-3C2 Fab (Fab, V domains shown, Human Fab format; constant parts not restated) VH: EVQLVESGGGLVQPGGSLRLSCAVSGFSLTSYGVHWVRQAPGKGLEWVAVIWAGGSTNYADSVKGRFTISKDNSKNTVYLQMNSLRAEDTAVYYCAKPYGNSAMDYWGQGTLVTVSS VL: DIQMTQSPSSLSASVGDRVTITCKASQDVGIVVAWYQQKPGKAPKLLIYWASIRHTGVPSRFSGSGSGTEFTLTISSLQPDDFATYYCQQYSNYPLYTFGQGTKVEIK | 0.013 | 100 | 0.046 | 3120 | 0.073 | 99 | 0.065 | 100 | 8.09 | 1.15e-05 | 1.42e+06 | 
hu333-1A Fab (Fab, V domains shown, Human Fab format: Vh joined to human IgG2 CH1 with C232S and C233S (Kabat numbering) and a C-terminal 8xHis tag; Vk joined to the constant region of human kappa chain) VH: EVQLVESGGGLVQPGGSLRLSCAVSGFSLTSYGVHWVRQAPGKGLEWVAVIWAGGSTNYNSALMSRLTISKDNAKNSVYLQMNSLRAEDTAVYYCAKPYGNSAMDYWGQGTLVTVSS VL: DIQMTQSPSTLSASVGDRVTITCKASQDVGIVVAWYQQKPGKAPKLLIYWASIRHTGVPSRFSGSGSGTEFTLTISSLQPDDFATYYCQQYSNYPLYTFGQGTKLEIK |  |  |  |  |  |  |  |  |  |  |  | IL-2 release in HuT78/P3Z: IC50 [5]: 0.012 µg/mL; IL-2 release in HuT78/PD-1: EC50 [5]: 0.066 µg/mL; IC50 [6]: 0.057 µg/mL; IC50 [7]: 0.049 µg/mL; Kd (human PD-L1-ECD/His [8]): 9.88 pM; koff (human PD-L1-ECD/His [8]): 1.59e-05 s⁻¹; kon (human PD-L1-ECD/His [8]): 1.61e+06 M⁻¹ s⁻¹

Continued, in another order:

IL-2 release in HuT78/P3Z: IC50 [1] [µg/mL] | IL-2 release in HuT78/P3Z: Max inhibition [1] [%] | IL-2 release in HuT78/PD-1: EC50 [1] [µg/mL] | IL-2 release in HuT78/PD-1: Top line [1] [pg/mL] | IC50 [2] [µg/mL] | Max inhibition [2] [%] | IC50 [3] [µg/mL] | Max inhibition [3] [%] | Kd (human PD-L1-ECD/His [4]) [pM] | koff (human PD-L1-ECD/His [4]) [s⁻¹] | kon (human PD-L1-ECD/His [4]) [M⁻¹ s⁻¹] | Binder | also measured
0.014 | 95 | 0.057 | 2550 | 0.044 | 99 | 0.068 | 100 | 0.17 | 2.2e-07 | 1.28e+06 | hu333-3A2 Fab (Fab, V domains shown, Human Fab format; constant parts not restated) VH: EVQLVESGGGLVQPGGSLRLSCAVSGFSLTSYGVHWVRQAPGKGLEWVAVIWAGGSTNYVDSVKGRLTISKDNAKNTVYLQMNSLRAEDTAVYYCAKPYGNSAMDYWGQGTLVTVSS VL: DIQMTQSPSSLSASVGDRVTITCKASQDVGIVVAWYQQKPGKAPKLLIYWASIRHTGVPSRFSGSGSGTEFTLTISSLQPDDFATYYCQQYSNYPLYTFGQGTKVEIK | 
 |  |  |  |  |  |  |  | 3.5 | 1.32e-05 | 3.78e+06 | hu333-4B2 Fab (Fab, V domains shown, Human IgG1 Fab format: Vh fused to human IgG1-CH1 with C-terminal His6 tag, Vk fused to the constant region of kappa chain) VH: EVQLVESGGGLVQPGGSLRLSCAVSGFSLTSYGVHWVRQAPGKGLEWVAVIWAGGSTNYADSVKGRFTISKDTSKNTVYLQMNSLRAEDTAVYYCAKPYGTSAMDYWGQGTLVTVSS VL: DIQMTQSPSSLSASVGDRVTITCKASQDVGIVVAWYQQKPGKAPKLLIYWASIRHTGVPSRFSGSGSGTEFTLTISSLQPDDFATYYCQQYSNYPLYTFGQGTKVEIK | IL-2 release in HuT78/P3Z: IC50 [9]: 0.016 µg/mL; IL-2 release in HuT78/PD-1: EC50 [9]: 0.058 µg/mL; Kd (human PD-L1-ECD/His [10]): 3.5 pM; koff (human PD-L1-ECD/His [10]): 1.32e-05 s⁻¹; kon (human PD-L1-ECD/His [10]): 3.78e+06 M⁻¹ s⁻¹; Kd [11]: 2.5 pM; koff [11]: 8e-06 s⁻¹; kon [11]: 3.2e+06 M⁻¹ s⁻¹; IC50 [12]: 0.062 µg/mL; IC50 [13]: 0.053 µg/mL
